Laboratory results taken from patent US20240270846A1 (published 2024).
Changes are numbered by the printed parent chain. Names may count otherwise.

B1: GLS3000 L33F one-arm antibody (antibody, human IgG1, kappa, L234A L235A, N297A, name in Kabat numbering)
light: DIVMTQSPLSLPVTPGEPASISCRSSQSLVHSNRNTYFHWYQQKPGQAPRLLIYKVSNRFSGVPDRFSGSGSGTDFTLKISRVEAEDVGVYYCGQGTQVPYTFGQGTKLEIKRTVAAPSVFIFPPSDEQLKSGTASVVCLLNNFYPREAKVQWKVDNALQSGNSQESVTEQDSKDSTYSLSSTLTLSKADYEKHKVYACEVTHQGLSSPVTKSFNRGEC
heavy: QVQLVESGGGVVQPGRSLRLSCAASGFTFSNAWMHWVRQAPGKGLEWVAQIKAKSNNYATYYAESVKGRFTISRDDSKNSLYLQMNSLKTEDTAVYYCRYVHYGAYYGVDAWGQGTTVTVSSASTKGPSVFPLAPSSKSTSGGTAALGCLVKDYFPEPVTVSWNSGALTSGVHTFPAVLQSSGLYSLSSVVTVPSSSLGTQTYICNVNHKPSNTKVDKKVEPKSCDKTHTCPPCPAPEAAGGPSVFLFPPKPKDTLMISRTPEVTCVVVDVSHEDPEVKFNWYVDGVEVHNAKTKPREEQYASTYRVVSVLTVLHQDWLNGKEYKCKVSNKALPAPIEKTISKAKGQPREPQVYTLPPSRCELTKNQVSLSCAVKGFYPSDIAVEWESNGQPENNYKTTPPVLDSDGSFFLVSKLTVDKSRWQQGNVFSCSVMHEALHNHYTQKSLSLSPDYKDDDDK
chain: EPKSSDKTHTCPPCPAPELLGGPSVFLFPPKPKDTLMISRTPEVTCVVVDVSHEDPEVKFNWYVDGVEVHNAKTKPREEQYNSTYRVVSVLTVLHQDWLNGKEYKCKVSNKALPAPIEKTISKAKGQPREPQVCTLPPSRDELTKNQVSLWCLVKGFYPSDIAVEWESNGQPENNYKTTPPVLDSDGSFFLYSKLTVDKSRWQQGNVFSCSVMHEALHNRYTQKSLSLSP
B2: GLS3000 Q90D one-arm antibody (antibody, human IgG1, kappa, L234A L235A, N297A, name in Kabat numbering)
light: B1 light with F38L, Q95D
heavy: B1 heavy
chain: B1 chain
B3: GLS3000 N53E one-arm antibody (antibody, human IgG1, kappa, L234A L235A, N297A, name in Kabat numbering)
light: B1 light with F38L, N58E
heavy: B1 heavy
chain: B1 chain
B4: GLS3000 Q90A one-arm antibody (antibody, human IgG1, kappa, L234A L235A, N297A, name in Kabat numbering)
light: B1 light with F38L, Q95A
heavy: B1 heavy
chain: B1 chain
B5: GLS3000 N53S one-arm antibody (antibody, human IgG1, kappa, L234A L235A, N297A, name in Kabat numbering)
light: B1 light with F38L, N58S
heavy: B1 heavy
chain: B1 chain
B6: GLS3000 N53Y one-arm antibody (antibody, human IgG1, kappa, L234A L235A, N297A, name in Kabat numbering)
light: B1 light with F38L, N58Y
heavy: B1 heavy
chain: B1 chain
B7: GLS3000 N53H one-arm antibody (antibody, human IgG1, kappa, L234A L235A, N297A, name in Kabat numbering)
light: B1 light with F38L, N58H
heavy: B1 heavy
chain: B1 chain
B8: GLS3000 L33V one-arm antibody (antibody, human IgG1, kappa, L234A L235A, N297A, name in Kabat numbering)
light: B1 light with F38V
heavy: B1 heavy
chain: B1 chain
B9: GLS3000 L33P one-arm antibody (antibody, human IgG1, kappa, L234A L235A, N297A, name in Kabat numbering)
light: B1 light with F38P
heavy: B1 heavy
chain: B1 chain
B10: GLS3000 L33M one-arm antibody (antibody, human IgG1, kappa, L234A L235A, N297A, name in Kabat numbering)
light: B1 light with F38M
heavy: B1 heavy
chain: B1 chain
B11: GLS3000 N53I one-arm antibody (antibody, human IgG1, kappa, L234A L235A, N297A, name in Kabat numbering)
light: B1 light with F38L, N58I
heavy: B1 heavy
chain: B1 chain
B12: GLS3000 P95D one-arm antibody (antibody, human IgG1, kappa, L234A L235A, N297A, name in Kabat numbering)
light: B1 light with F38L, P100D
heavy: B1 heavy
chain: B1 chain
B13: GLS3000 N53Q one-arm antibody (antibody, human IgG1, kappa, L234A L235A, N297A, name in Kabat numbering)
light: B1 light with F38L, N58Q
heavy: B1 heavy
chain: B1 chain
B14: GLS3000 P95G one-arm antibody (antibody, human IgG1, kappa, L234A L235A, N297A, name in Kabat numbering)
light: B1 light with F38L, P100G
heavy: B1 heavy
chain: B1 chain
B15: GLS3000 N53K one-arm antibody (antibody, human IgG1, kappa, L234A L235A, N297A, name in Kabat numbering)
light: B1 light with F38L, N58K
heavy: B1 heavy
chain: B1 chain
B16: GLS3000 P95S one-arm antibody (antibody, human IgG1, kappa, L234A L235A, N297A, name in Kabat numbering)
light: B1 light with F38L, P100S
heavy: B1 heavy
chain: B1 chain
B17: GLS3000 N53W one-arm antibody (antibody, human IgG1, kappa, L234A L235A, N297A, name in Kabat numbering)
light: B1 light with F38L, N58W
heavy: B1 heavy
chain: B1 chain
B18: GLS3000 Q93A one-arm antibody (antibody, human IgG1, kappa, L234A L235A, N297A, name in Kabat numbering)
light: B1 light with F38L, Q98A
heavy: B1 heavy
chain: B1 chain
B19: GLS3000 P95L one-arm antibody (antibody, human IgG1, kappa, L234A L235A, N297A, name in Kabat numbering)
light: B1 light with F38L, P100L
heavy: B1 heavy
chain: B1 chain
B20: GLS3000 N53L one-arm antibody (antibody, human IgG1, kappa, L234A L235A, N297A, name in Kabat numbering)
light: B1 light with F38L, N58L
heavy: B1 heavy
chain: B1 chain
B21: GLS3000 N53P one-arm antibody (antibody, human IgG1, kappa, L234A L235A, N297A, name in Kabat numbering)
light: B1 light with F38L, N58P
heavy: B1 heavy
chain: B1 chain
B22: GLS3000 Q90E one-arm antibody (antibody, human IgG1, kappa, L234A L235A, N297A, name in Kabat numbering)
light: B1 light with F38L, Q95E
heavy: B1 heavy
chain: B1 chain
B23: GLS3000 N53M one-arm antibody (antibody, human IgG1, kappa, L234A L235A, N297A, name in Kabat numbering)
light: B1 light with F38L, N58M
heavy: B1 heavy
chain: B1 chain
B24: GLS3000 Q90S one-arm antibody (antibody, human IgG1, kappa, L234A L235A, N297A, name in Kabat numbering)
light: B1 light with F38L, Q95S
heavy: B1 heavy
chain: B1 chain
B25: GLS3000 P95E one-arm antibody (antibody, human IgG1, kappa, L234A L235A, N297A, name in Kabat numbering)
light: B1 light with F38L, P100E
heavy: B1 heavy
chain: B1 chain
B26: GLS3000 N53G one-arm antibody (antibody, human IgG1, kappa, L234A L235A, N297A, name in Kabat numbering)
light: B1 light with F38L, N58G
heavy: B1 heavy
chain: B1 chain
B27: GLS3000 Q90P one-arm antibody (antibody, human IgG1, kappa, L234A L235A, N297A, name in Kabat numbering)
light: B1 light with F38L, Q95P
heavy: B1 heavy
chain: B1 chain
B28: GLS3000 N53T one-arm antibody (antibody, human IgG1, kappa, L234A L235A, N297A, name in Kabat numbering)
light: B1 light with F38L, N58T
heavy: B1 heavy
chain: B1 chain
B29: GLS3000 N53F one-arm antibody (antibody, human IgG1, kappa, L234A L235A, N297A, name in Kabat numbering)
light: B1 light with F38L, N58F
heavy: B1 heavy
chain: B1 chain
B30: GLS3000 N53R one-arm antibody (antibody, human IgG1, kappa, L234A L235A, N297A, name in Kabat numbering)
light: B1 light with F38L, N58R
heavy: B1 heavy
chain: B1 chain
B31: GLS3000 N53V one-arm antibody (antibody, human IgG1, kappa, L234A L235A, N297A, name in Kabat numbering)
light: B1 light with F38L, N58V
heavy: B1 heavy
chain: B1 chain
B32: GLS3000 L33I one-arm antibody (antibody, human IgG1, kappa, L234A L235A, N297A, name in Kabat numbering)
light: B1 light with F38I
heavy: B1 heavy
chain: B1 chain
B33: GLS3000 P95A one-arm antibody (antibody, human IgG1, kappa, L234A L235A, N297A, name in Kabat numbering)
light: B1 light with F38L, P100A
heavy: B1 heavy
chain: B1 chain

target: T1, CD3 epsilon homodimer protein (UniProt P07766 23-126); assay: SPR Biacore T200, CD3e homodimer on chip, antibody analyte;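 also: CD3 epsilon homodimer amine-coupled on CM4 sensor chip, antibodies injected as analyte at 25 °C in HBS-EP+, ratio ≥0.8 taken as binding retained versus unaltered parent antibody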
T1 construct: Construct of the homodimer is not described; also called CD3 (CD3 epsilon)
T1 sequence (P07766 23-126): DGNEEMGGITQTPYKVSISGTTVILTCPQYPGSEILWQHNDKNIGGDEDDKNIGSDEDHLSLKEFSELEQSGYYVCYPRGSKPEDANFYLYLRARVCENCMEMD

In order of falling “ratio of amounts bound (altered form/GLS3000)” value:
1. B30  1.58
2. B7  1.18
3. B15  1.08
4. B8  1.05
5. B10  0.93
6. B22  0.86
7. B18  0.85
8. B32  0.83
9. B17  0.81
10. B21  0.81
11. B1  0.78
12. B13  0.77
13. B26  0.76
14. B24  0.73
15. B5  0.69
16. B29  0.69
17. B6  0.67
18. B33  0.63
19. B23  0.62
20. B20  0.56
21. B28  0.56
22. B31  0.56
23. B3  0.54
24. B4  0.5
25. B11  0.5
26. B16  0.43
27. B25  0.39
28. B14  0.37
29. B9  0.3
30. B27  0.27
31. B12  0.24
32. B19  0.24
33. B2  0.19
